Data published in patent US20150337046A1 (Kyowa Kirin, published 2015).

Legend:
[1] = target: T1, soluble FLAG-tagged recombinant hLIGHT (native, untreated) (human, UniProt O43557 66-240); test: dot blot: serial dilutions of native soluble hLIGHT on PVDF, probed with 5 µg/ml antibody, chemiluminescence
T1 construct: N-terminal FLAG tag followed by hLIGHT extracellular region Gly66 to Val240; also called soluble hLIGHT; FLAG-hLIGHT
T1 chain: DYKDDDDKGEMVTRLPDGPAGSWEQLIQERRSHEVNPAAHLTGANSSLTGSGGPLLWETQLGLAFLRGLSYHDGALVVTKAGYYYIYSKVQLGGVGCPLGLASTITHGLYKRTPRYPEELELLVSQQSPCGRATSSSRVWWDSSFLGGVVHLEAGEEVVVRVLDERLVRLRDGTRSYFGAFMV

[2] = target: T2, human LIGHT (hLIGHT), cell surface-expressed, full length (human, UniProt O43557 1-240); test: flow cytometry on hLIGHT-transfected cells
T2 construct: also called native hLIGHT on the cell surface; EL4-hLIGHT

[3] = target: T3, hLIGHT SNP variant 214E-32S, cell surface-expressed on EL4 cells (human, UniProt O43557 1-240); test: flow cytometry at 10 µg/ml antibody on EL4 SNP cell lines
[4] = target: T4, hLIGHT SNP variant 214K-32S, cell surface-expressed on EL4 cells (human, UniProt O43557 1-240); test: flow cytometry at one antibody concentration on EL4 SNP 214K cell line
[5] = target: T2, human LIGHT (hLIGHT), cell …; test: flow cytometry on HEK 293-hLIGHT cells
[6] = target: T4, hLIGHT SNP variant 214K-32S, cell …; test: flow cytometry dose titration on EL4 cells expressing 214K-32S
[7] = target: T3, hLIGHT SNP variant 214E-32S, cell …; test: flow cytometry dose titration on EL4 cells expressing the SNP variant
[8] = target: T5, hLIGHT SNP variant 214E-32L, cell surface-expressed on EL4 cells (human, UniProt O43557 1-240); test: as above
T5 construct: also called cytoplasmic SNP
T5 chain: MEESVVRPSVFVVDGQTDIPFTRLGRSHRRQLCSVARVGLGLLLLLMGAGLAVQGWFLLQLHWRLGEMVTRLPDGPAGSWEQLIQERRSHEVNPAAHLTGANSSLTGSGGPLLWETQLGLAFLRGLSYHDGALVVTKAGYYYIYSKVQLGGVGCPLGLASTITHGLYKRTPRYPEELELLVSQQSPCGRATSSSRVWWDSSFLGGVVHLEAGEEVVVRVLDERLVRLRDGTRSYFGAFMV

B1: F23 antibody (produced by hybridoma 124 F23, ATCC Accession No. PTA-7728) (antibody, V domains shown)
VH: QVQLQQWGAGLLKPSETLSLTCAVYGGSFSGYYWNWIRQPPGKGLEWIGEINQYNPSLKSRVTISVDTSKNQFSLKLSSVTAADTAVYYCAREIATADKGYYGLDVWGQGTTVTVSS
VL: AIQLTQSPSSLSASVGDRVTITCRASQGISSALAWYQQKPGKAPKLLIYDASSLESGVPSRFSGSGSGTDFTLTISSLQPEDFATYYCQQFNSYPLTFGGGTKVEIK
notes: Residue ranges without leader are those stated in claim 28 (CLM-00028)
Q: How did the “lowest limit of detection” value [1] turn out when B1 was run?
A: Its value is 23 ng.

B2: E63 antibody (produced by hybridoma 124 E63, ATCC Accession No. PTA-7818) (antibody, V domains shown)
VH: QVQLQESGPGLVKPSETLSLTCIVSGGSVSSGGYYWSWIRQPPGKGLEWIGYIYYSGSTNYNPSLKSRVTISVDTSKNQFSLKLSSVTAADTAVYYCARWITMFRGVGFDPWGQGTLVTVSS
VL: EIVLTQSPDFQSVTPKEKVTITCRASQSIGSSLHWYQQKPDQSPKLLIKYASQSFSGVPSRFSGSGSGTDFTLTINSLEAEDAAAYYCHQSSSLPLTFGGGTKVEIK
notes: a recombinant IgG1 version (E63G1) was also made
Q: Does B2 bind [2]?
A: Result: binds

Q: Does B2 bind [3]?
A: Result: binds

Q: Does B2 bind [4]?
A: Result: no binding (tested: 10 µg/ml)

Q: What about the “lowest limit of detection” value [1] of the same binder?
A: The value was 3.9 ng.

B3: E1 antibody (produced by hybridoma 124 E1, ATCC Accession No. PTA-7729) (antibody, V domains shown)
VH: EVQLVESGGGLVQPGGSLRLSCAASGFTFSRFNMNWVRQAPGKGLEWVSYISSSSYTIYYADSVKGRFTISRDNAKNSLDLQMNSLRDEDTAVYYCARSIAAAFDYWGQGALVTVSS
VL: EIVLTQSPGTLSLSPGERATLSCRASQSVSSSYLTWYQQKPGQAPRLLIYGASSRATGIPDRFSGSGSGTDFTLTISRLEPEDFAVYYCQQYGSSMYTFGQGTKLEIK
notes: Fully human IgG1 purified from hybridoma culture
Q: With B3 as the binder, how does the “lowest limit of detection” value [1] read?
A: Its value is 23 ng.

B4: recombinant single kappa chain antibody of E1 heavy chain paired with Elkappa(B) (antibody, V domains shown)
VH: EVQLVESGGGLVQPGGSLRLSCAASGFTFSRFNMNWVRQAPGKGLEWVSYISSSSYTIYYADSVKGRFTISRDNAKNSLDLQMNSLRDEDTAVYYCARSIAAAFDYWGQGALVTVSS
VL: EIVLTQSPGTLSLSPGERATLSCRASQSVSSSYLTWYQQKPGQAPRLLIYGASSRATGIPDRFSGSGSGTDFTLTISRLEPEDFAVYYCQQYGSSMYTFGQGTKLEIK
notes: also called E1kappa(B); 124Elkappa(B)
Q: Does B4 bind [5]?
A: Result: binds

Q: Does B4 bind [6]?
A: Result: no binding

Q: Does B4 bind [7]?
A: Result: binds

Q: Does B4 bind [8]?
A: Result: binds
